Experimental data reported in the DeepSol protein solubility set.

test: soluble on expression in E. coli; label from the status in PepcDB or PDB records

Soluble on expression in E. coli, not soluble:
MGSDKIHHHHHHMDDRPLFGPFARKGSYSRVQVFDHLFADDRFTALYQEIAILPEVDELMLYRRYLQKEDRVLVHGNFSATLFNTLCAEGYDLYLVESELTRIAGIADPYLHRVYGLSNEVVDVMGSHAFNKIILPGTTIARYSRGELLLFFRNIRHLLATDGQLLISIHNADYLRQNVQPIASRRMEDCTLFYGQKVDRDRLIFNTYLKSASDEKVGYVVEHLYETDTLFEFAKLSRYRGRTLYAGKSISILEFDKIG
MGSDKIHHHHHHMDGGFMQKKVLLVGLGVMGSRIAANFASAGKLAGVYDRNVDKAKNTASMLKVGFYRDLGEAVKNSDIIVTMLYDDRSVKEVYSQMEQGVQGKVFIDMSTISPDTSIEIAKRIKEKGGKMYDAPVIGTSIAVEKKALVVLVGGDLSGYDEVRDLISATANQVVYMGDNGSGLYAKLVNNLFLGSYMASLAEAVRFGRKNGIPDSTISDVLTKYSSARSPTSDLKVPKMISEDYSVQFSIKNMLKDMEIVDRMASEKRIALPVASLALQLFRYLMDSGYGEEDIAAIYRALR
MGSDKIHHHHHHMDIDLARTFLEIARSGSFVAAAERLHLTQTAVTARIQNLEGQLGCRLFVRNRAGARLTADGEHFLGYASQLVQTWDAARRDLPLPDGFRNLLNLGGEVSLCNPLLLNWMRRLREAIPGHAVRVEIGQGADLLKQLEQGALDAALVYQPEYWPGLQVEQLLEEKLVMVRSVLSAEPYLYVDWGPDFRSQHDAALPDRAKAALACNLGPLALQYIMQNGGSGYFRTRVVSSYLDGGTLQRVEQAPEFAYPTYLVYSRERLSPTLRHAFQLLREVVREDSDWSQRWDYVI
MGSDKIHHHHHHMDIDRTILVQIQGLLVFESPLHHDERGYFLENWRKKDLLANGVPESFFHHKLQNNVSVSKQGVIRGMHCQGYEKLMTVAYGTFKMIFIDLRIDSPTYKSVDVIDVQPGRAVFVPGGVANGAQSLVNNGILNYLVADYYDPHKNYLGITPLDKDANLSWDSLLKPIISEKDQAAKSFKEVLEIIESSKKKVALIGSTGAVGKVLFDTLRKQSDIDLSCFNRNNIEEALKDFYDMVICTAPSSEKLLTNLSLKNDDAEIEKLVNVLKNIQTGHMILVSTKSVFDSGARYSAIHQKIYNSVIEAHQNSNTIYIMDTLYGKTLKKGFINDLLSRQWTYISNDIVLDKPELENYYQKVNDQLWSLVEPLPNELLSTLEPISDIYPDEMCYQVTAINDLVSHLMANLNRIDGVKLGIDKSEIFTGRQIKNLLKNPDNSTLGRYFKKQEGDFNLENL
MGSDKIHHHHHHMDIENMKAFNKVAELKSISAAANELHHLQSNMSNKIKNIEKQFQTQLFFRHSNGVELTKEGEKIYQQFKKMILLWEETIDIINNEEETISIGITQSSLPMEFNTIIKEFYQQFPNKKLSIVSGSTSELIPKIANRELTIAYVAELEKENLFQDSQIISQTLSWDKLVFAGNTAGKSVQKILAEERLYVFSKQCYSYRALAALINDFNIPNVSISEINIPETLVEICNNELGVGIIPESIALNYHFLNYETLPTEYAALRKTLIYHADHTISNGEKWLIEKSKPAFKS
MGSDKIHHHHHHMDIKQLQYLCNLEKERHFGRAAEASFVSQPTLSMRLKNLERELDLALINRGNNFEGFTAEGERVLAWAREIVSVYQGLKLEVASLKRGVSGVLRIGAVPQSSIALSSLLAAVNKEYPQLDFQISLFSADQLLEALNAHSVDVGIGFFEFSTLQELHFQASPLTEQGVDLLFHPHHFPQLVGDAPLALDALSDVPLCLAEASRYFRRYLDSHFREMGVSPWVKVESASVLQLIQSVYVGLGCGIVPHGSLIPEMTPALTLRPLQFPPMRRQPAVVIAQAGRATALAQNFFDVAQEWLQAQS
MGSDKIHHHHHHMDKFLYISMSGAKQNMNELALRANNLANANTDGFKSDMAQARSMQAFGEGLPTRVFAMVETPSANFRSGPIKSTGRDLDVAIKGDGWFAVQAQDGSEAYTRSGSLSFDSTGLLHNDRGNPVMGDAGPIVLPLPIEKVTISQDGIISVRPQGATTEVVEEVGRLKLVNPGNAQMMRGEDGLFRLVSGDPAPADPSVSVESGAVEGSNVNSVDEMVSLIDLQRQFELQVKMMKTAEENDRASSSLMRIS
MGSDKIHHHHHHMDKKSSVSPLPTKALSDDKNSPITVWHIGGEDIRLRIPLLLKLREKGFNVGAVGSEDGNAFADNQIPYFRYTLERGINPWADIYTRSQLSALFRQHQPDIVHSFDTKPAMIAPIVAMKTGIPGRVRTITGMGYVFSSTSTLALALRPIYRHLQRQAAIATGITIFQNPDDREYFCKHKMVLDGRDDLVLGSGIDVEGLMKNSAEPEKLAATRRELGLEGQLVVTMISRLVISKGVREYLQVASIVCQQMKNVTFLLIGSVSSEGGQAIPIQEIHQQAGVVRYLGPRNDIPTLLNLSDVFVLPSYYREGVPRVLLEAATMELPLITTDMPGCKEVVKDGWNGLLVPPRDTKALATAILKLLNSPEQRNLMGKRSRVHVQTNFSLNQVADAYADIYNRVLKLPKTLK
MGSDKIHHHHHHMDNLLSIKSLCDEDIDFVTEISRKEGFAPGVGDLRIYQNTDKQGLWVGWLDNNPIGCIAGVRYNQYYGFLGLFLVIEEYRGRGFGLQLWKKALSHLSDLPCVGLEAAPERITDYSKWGFTISSKTTRWQLLGDGKLVEEYSKNDDFDDFSFVEGSSIPQDAVKKFDEKRETTPRPHFLSNWLNHPAGKVIAVIDKKNCCHGFGRIRPCLLQNGDGWRIGPLMADTPMLLQILLKKLIESHPGLIIIDAPGLNKSASEVFRKLGFKSESETFRMYRGSQPPVSMNDVYGLACLELG
MGSDKIHHHHHHMDPTTMPAPAPINYSQTWTFFEGEWHDGNVPIMGPRTHAAWLGSMVFDGARAFEGVTPDLDQHLARINWSATNFKLNALVDKATWLGLVQDGLKRFAGNAELYIRPMYWAQNGVGGGVLFDPDTTNWCLCIYEAPMPKPTGLSITLSPFRRPTAECAPVEAKAGCLYPNNSRAMMEAKSRGFDNCLLRDMLGHIAELGNSNIFMAKDGVVYTPAANGTFLSGITRQRVIELLRGDGITVLETSLSYRDFETADEIFASGNFAKVQPIIRIDDRSLQPGPFYAKARKLYWEFAHG
MGSDKIHHHHHHMDRFDLGIVKVHRIEEWRGTFSPPAELFDGFSPDGWEPHAEEFAPEYYDPVSGKLFAFLQSWVLDTGTQRILFDTGAGNDKDRPNLPIFGNLQTGFLDNLAAAGFQPEDIDVVVCSHIHVDHVGWNTRLVDGRWEPTFRNARYVLPLADRAYWDPQDASAGPAGIGAAVNAGMFDDSVRPIIEAGRAEWAEDGFEVAEGLVLRSCPGHTPGSMMLEVSGGEDTAMFVGDVVHHPAQIYRPEWNSIFCEAPEDARETRRRVLDLAASREALLIPAHFGGSHMARVLRDGSGFRPVLDPMGSG
MGSDKIHHHHHHMDSLVVPGLDTLRRWLDEIGISFFECDSCQALHLPHMQNFDGIFDAKIDLVDNVVLFSALAEVKPSALLALSADLSAINASSLTVKAFIDIQDDNLPKLVVCQSLSIGPGVTMEQFAWFFRQSEEQISMVILEAGANQLLYKGEEEEPAAENVQYHFLH
MGSDKIHHHHHHMDTIAESIQKKAYELGYEKCGIIPINLIDEYADKFNERMEKIPKSKMFYKSQERLIKPKEIYPWAKSVVVLTSVYGKYKVPQELNGHIAKAYLFDTRVDKNTKEYQNNRALEEYMQELGLKVETNQKFGVVGMRWAALQAGVGIIRRNNFLYTESGSWVHLEAWVTDRKMELKETNNVKKCPKSCNRCIMSCPTKSLSEPYTMSPTECVSFLTTFGGRNLPEEPLRKKFGDCIYGCDICQDACPMNKGKWKDEEEFPGLAELAPSLTPENILNMDEDFYREKVQPKFFYLSPEDLWKWKIDALCYIGNNYSESYKPLLVNACNNANNKISEMANLICSELSLQ
MGSDKIHHHHHHMDVANKIKVIDRLRLGFAVLVAKSVTFLVRSLRLGAASVLPGSIARRIEPRLLQLLSQQVQNGVIIIAGTNGKTTTALLLCTILENKGYRVCHNSTGANLENGLMTALLDSTNLVGTLDVDYAILEVDENIVPRVLKPLQPRIILCLNLFRDQLDRYGEVDTISKRWTKVISTLPRETVVIPNADDPTLSLLGQQLPQKVLFFGLNEPEHYLEAIPHAVDSIYCPQCGHSLDYQGVYLSHLGDFTCPSCGFTKSQPTLASREWSQILVGLYNKYNTLAATTAAIELGVDETTIRDTINNFQAAFGRAEDLVIDGKRVRILLSKNPVGTNETIRVVTQSTDKTTLLVLNDRTPDGTDVSWIWDVDTEKLVERGGTLVVSGDRVYDMALRLRYSEKSAQSNLNLIVEADLRQAIATALEHTPATETLHILPTYSAMLEVREVLTGRKIL
MGSDKIHHHHHHMDVTQLKMLHNAKVISEIKKGFSVDRKYQVDETYLVRVFPIDLLQERKQEFKIIQALDSQTPFVPKAYDFGFIEREGYMIISYLRGEDAESGMTHLSHSEQFKAGFSAGEILREVHKIPLDIPKMNWLDFQTAKFKRKVEELKELEITASFLTDTEKFVYKNIARLKNRPICLQHGDFHPANIILNNKKFVGLIDFNRLEFGDPLFDLAKIGFFTTEVSIPFARGNILGYIDKEEVTDFWNLYALYTAMHITSAVSWAAKNESRNFKKLMDYAVKTAASHDNFQKIVPNWMNEEEFK
MGSDKIHHHHHHMDWTNIPPLYALKAFESAAKHQSFTLAASELFISQSAISKHINTIEIFFGRKLFYRKGPKVFLTKEGESFAGDLRHAFEILSKACENIHRAGIVLTISSPYTFSIRQFIPVLRKYKNQDGFPIVTVETINDDYSHSIVNLKNHDATVKYGDGKFSDEWNCTLLSPECLIVVVSPKLLHLFEKDNRILIDLVYVKSRELDWFSWCEESRLKERFQVINKYEFESMDSAINAVIKGLGVAVVDIGMVCDELMDGVLLTPFKFSFYSGRGYYFLRGGDDDNYLSSLLECVRLDLSGRGLAELCFNDKCDMGNCRLAATKKITK
MGSDKIHHHHHHMDYMKKLLGAEDLFDRDEPLKGVRVLEVCSVVLGPAATDYLAEFGAEVIKFEARRGDQMRYVTPYAYFWRNLSPGLLEQNHNKYWVGMHLGHPKARELFYEFVKRSDVVVDNLTPGRLSKWGISYDRLREINPRIIQLHVSGFGSWGPYTGRTSYDAIAQSEGGLAYITGFEGRGPLKSGVWIADWTTALMCAVAIVAALNYRERTGEGQYIDYSQVENVIRFLDWTWTYVDMTGENRERVGNRDLAICPSDLFDCKDGWVAIVAFSEEEFKGLCQAMGRMDLYEKFADPLERLKDENARLILKEIAEWAKTKTVKDVEELADKYGFAASHVIEVDEAYYSEHLRERGAIMAYDDPLYGEFVEPCYPPRMETPSRLKWGARPLGFDNEFVLTKYLGLSMDEIEQLYEEGVIYRWNPDVKPQCPPPDWDGKKGLKFP
MGSDKIHHHHHHMDYWEKADYSWSDDSKRHILTPSSKSRTLFYYIQEIGQFKASRPYYTERAHLPSYLIKFTLNGTGELRYRYHTYSLQRGDLFFIDCRDYQYYQATSEDPWEMDWIHFEGGNSGAFFQEFMKNGSPVFSTNQLPEDNPIHLIIQQLLQLQDLQHAQTDYQSSVLIHQLLNELLLQKYRQDFTYETIPSLVLEMKAYIDQHFKETISLEDLAQLFHLNKYQLNKEFSKYIGLPPIKYQISKKISYSKDLLRYSNQTVKEIAVDVGLENYAYFSRLFKKRTGLTPSQYRKSGF
MGSDKIHHHHHHMEATTNNMKDVTGAELLICTIGHSTHPLEEFINLLKKNEVTHLLDVRTVPRSRHNPQFNKETLPDALGAIGIKYTHLSGLGGLRHARKDSINEGWRNASFRGYADYMQTQEFVENVNRVIELAAHDRCALMCAEAVPWRCHRSLIADALVVRGVRVEDIIDNHGRKPHSLTPWAQAEGVRIFYPAQQGRLI
